Measurements from patent US20240108738A1, “BICYCLIC PEPTIDE LIGANDS SPECIFIC FOR NK CELLS” (Bicycle Tx Limited, priority 2021, published 2024).

Biological target: human CD16a F176 variant, biotinylated (human) (UniProt P08637)
Experiment: AlphaScreen competition: 10 nM C-terminally biotinylated CD16a F176, mouse IgG2a-conjugated acceptor beads as competed ligand

Sequence of human CD16a F176 variant, biotinylated (human) (P08637 17-208 limits assumed, change not shown): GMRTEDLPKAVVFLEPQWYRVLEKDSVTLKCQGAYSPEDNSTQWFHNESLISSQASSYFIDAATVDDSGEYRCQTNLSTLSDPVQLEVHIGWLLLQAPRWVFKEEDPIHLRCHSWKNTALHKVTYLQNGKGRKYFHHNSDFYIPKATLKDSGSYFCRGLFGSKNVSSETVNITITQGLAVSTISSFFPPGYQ

Substance: IgG positive control (antibody)
- IC50 (read off the curve): 0.05 µM
